Data from article PMC13056932 (Nature Communications, 2026).

Assays:
[1] = biological target: large tegument protein VP1/2 (ORF22) (Varicella-zoster virus (parental Oka strain)) (UniProt P09278); assay: cryo-EM structure
[2] = biological target: the molecule itself; assay: cryo-EM structure

“large tegument protein VP1/2 (ORF22), P09278 1-2763” showed a stoichiometry N [1] of 2.

B1: capsid vertex-specific component 2 (CVC2; ORF34) (natural protein, UniProt P09287 1-579, looked up)
chain: MTARYGFGSISFPNKCGIFLSTTKNFIAPNFPIHYWTAPAFELRGRMNPDLEKNTLTLKNAAAVAALDNLRGETITLPTEIDRRLKPLEEQLTRMAKVLDSLETAAAEAEEADAQSEECTRTEIIRNESIHPEVQIAKNDAPLQYDTNFQVDFITLVYLGRARGNNSPGIVFGPWYRTLQERLVLDRPVAARGVDCKDGRISRTFMNTTVTCLQSAGRMYVGDRAYSAFECAVLCLYLMYRTSNSVHEPQVSSFGNLIEHLPEYTETFVNYMTTHENKNSYQFCYDRLPRDQFHARGGRYDQGALTSHSVMDALIRLQVLPPAPGQFNPGVNDIIDRNHTAYVDKIQQAAAAYLERAQNVFLMEDQTLLRLTIDTITALLLLRRLLWNGNVYGDKLKNNFQLGLIVSEATGTPTNNVILRGATGFDGKFKSGNNNFQFLCERYIAPLYTLNRTTELTEMFPGLVALCLDAHTQLSRGSLGRTVIDISSGQYQDRLISLIALELEHRRQNVTSLPIAAVVSIHDSVMLQYERGLGMLMHQPRVRAALEESRRLAQFNVNSDYDLLYFVCLGVIPQFASTP
For B1, the “stoichiometry N” value [2] was 2.

B2: capsid triplex protein 2 (TRX2; ORF41) (natural protein, UniProt P09291 1-316, looked up)
chain: MAMPFEIEVLLPGELSPAETSALQKCEGKIITFSTLRHRASLVDIALSSYYINGAPPDTLSLLEAYRMRFAAVITRVIPGKLLAHAIGVGTPTPGLFIQNTSPVDLCNGDYICLLPPVFGSADSIRLDSVGLEIVFPLTIPQTLMREIIAKVVARAVERTAAGAQILPHEVLRGADVICYNGRRYELETNLQHRDGSDAAIRTLVLNLMFSINEGCLLLLALIPTLLVQGAHDGYVNLLIQTANCVRETGQLINIPPMPRIQDGHRRFPIYETISSWISTSSRLGDTLGTRAILRVCVFDGPSTVHPGDRTAVIQV
For B2, the “stoichiometry N” value [2] was 2.
